What was measured:
[1] = target: MERTK (UniProt Q12866); assay: phosphorylation enrichment, bacterial display (enrichment ratio); higher = better substrate or ligand; peptides without Tyr show the background
[2] = target: Hck (UniProt P08631); assay: as above
[3] = system: Fer (mouse); assay: as above
[4] = target: EPHB1 (UniProt P54762); assay: as above
[5] = target: EPHB2 (UniProt P29323); assay: as above
[6] = target: Fes (UniProt P07332); assay: as above
[7] = system: AncSZ; assay: as above
[8] = target: Fyn (UniProt P06241); assay: as above
[9] = target: FGFR3 (UniProt P22607); assay: as above
FGFR3, sequence (P22607 whole entry, looked up): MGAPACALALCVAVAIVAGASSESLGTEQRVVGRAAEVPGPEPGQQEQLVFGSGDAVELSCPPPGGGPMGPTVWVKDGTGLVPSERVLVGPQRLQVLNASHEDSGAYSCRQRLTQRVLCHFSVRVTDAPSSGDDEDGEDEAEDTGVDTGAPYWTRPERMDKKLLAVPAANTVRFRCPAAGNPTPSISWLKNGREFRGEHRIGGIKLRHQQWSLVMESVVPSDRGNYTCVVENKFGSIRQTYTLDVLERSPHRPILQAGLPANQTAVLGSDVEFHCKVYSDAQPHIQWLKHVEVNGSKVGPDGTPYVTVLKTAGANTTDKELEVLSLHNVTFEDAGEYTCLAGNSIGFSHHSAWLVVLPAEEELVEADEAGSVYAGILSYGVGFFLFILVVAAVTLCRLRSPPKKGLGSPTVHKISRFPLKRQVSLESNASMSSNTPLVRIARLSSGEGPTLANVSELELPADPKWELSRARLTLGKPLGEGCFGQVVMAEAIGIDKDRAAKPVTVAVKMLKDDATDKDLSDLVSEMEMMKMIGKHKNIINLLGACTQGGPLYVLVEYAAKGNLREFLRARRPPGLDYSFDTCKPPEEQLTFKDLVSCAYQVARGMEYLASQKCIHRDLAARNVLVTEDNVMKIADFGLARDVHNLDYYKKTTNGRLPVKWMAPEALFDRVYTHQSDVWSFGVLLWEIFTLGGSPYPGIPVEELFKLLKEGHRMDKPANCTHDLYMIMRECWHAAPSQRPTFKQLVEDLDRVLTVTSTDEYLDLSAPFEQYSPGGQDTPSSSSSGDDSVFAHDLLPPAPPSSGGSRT

[10] = system: c-Src; assay: as above
[11] = target: FGFR1 (UniProt P11362); assay: as above
FGFR1, sequence (P11362 whole entry, looked up): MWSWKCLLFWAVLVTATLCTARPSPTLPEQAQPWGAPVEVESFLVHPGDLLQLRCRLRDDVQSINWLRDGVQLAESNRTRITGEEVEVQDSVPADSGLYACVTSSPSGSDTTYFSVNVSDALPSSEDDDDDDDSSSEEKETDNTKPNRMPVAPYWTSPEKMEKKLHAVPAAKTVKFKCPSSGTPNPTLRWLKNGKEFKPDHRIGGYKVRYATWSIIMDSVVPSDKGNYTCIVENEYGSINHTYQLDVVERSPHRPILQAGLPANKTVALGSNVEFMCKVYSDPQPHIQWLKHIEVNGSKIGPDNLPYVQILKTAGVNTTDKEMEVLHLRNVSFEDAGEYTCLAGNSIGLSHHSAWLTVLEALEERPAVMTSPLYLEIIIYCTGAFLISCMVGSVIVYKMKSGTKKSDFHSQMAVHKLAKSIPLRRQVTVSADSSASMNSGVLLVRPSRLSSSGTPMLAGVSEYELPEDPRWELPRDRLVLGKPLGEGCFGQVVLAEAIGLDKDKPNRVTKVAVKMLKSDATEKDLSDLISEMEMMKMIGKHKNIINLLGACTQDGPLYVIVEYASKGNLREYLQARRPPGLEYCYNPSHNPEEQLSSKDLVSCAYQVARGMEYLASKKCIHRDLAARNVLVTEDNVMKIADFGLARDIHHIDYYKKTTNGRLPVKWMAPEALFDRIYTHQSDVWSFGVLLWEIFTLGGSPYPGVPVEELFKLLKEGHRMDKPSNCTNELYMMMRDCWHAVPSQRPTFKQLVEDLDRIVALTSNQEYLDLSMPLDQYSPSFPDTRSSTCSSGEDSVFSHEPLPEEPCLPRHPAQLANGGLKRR

[12] = target: Jak2 (UniProt O60674); assay: as above
[13] = system: c-Abl (mouse); assay: as above
[14] = target: SHP2-C SH2; assay: SH2 binding enrichment of the phosphorylated peptide, bacterial display (enrichment ratio); higher = better substrate or ligand; peptides without Tyr show the background
[15] = target: c-Src SH2; assay: as above
[16] = target: Grb2 SH2 (UniProt P62993); assay: as above
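Throughout, for SH2 binding enrichment of the phosphorylated peptide, bacterial display: peptide library displayed on the E. coli surface as eCPX fusions, selected cells deep-sequenced, score is each peptide's frequency after selection divided by its frequency in the input.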
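Throughout, for phosphorylation enrichment, bacterial display: 11-residue human phosphosite peptides and single-mutation variants displayed on the E. coli surface, counted by deep sequencing, each peptide's frequency after selection divided by its frequency in the unselected input library; frequency after pTyr selection over input frequency; kinase dosed for 20-30% of maximal phosphorylation in three min.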

MERTK, sequence (Q12866 whole entry, looked up): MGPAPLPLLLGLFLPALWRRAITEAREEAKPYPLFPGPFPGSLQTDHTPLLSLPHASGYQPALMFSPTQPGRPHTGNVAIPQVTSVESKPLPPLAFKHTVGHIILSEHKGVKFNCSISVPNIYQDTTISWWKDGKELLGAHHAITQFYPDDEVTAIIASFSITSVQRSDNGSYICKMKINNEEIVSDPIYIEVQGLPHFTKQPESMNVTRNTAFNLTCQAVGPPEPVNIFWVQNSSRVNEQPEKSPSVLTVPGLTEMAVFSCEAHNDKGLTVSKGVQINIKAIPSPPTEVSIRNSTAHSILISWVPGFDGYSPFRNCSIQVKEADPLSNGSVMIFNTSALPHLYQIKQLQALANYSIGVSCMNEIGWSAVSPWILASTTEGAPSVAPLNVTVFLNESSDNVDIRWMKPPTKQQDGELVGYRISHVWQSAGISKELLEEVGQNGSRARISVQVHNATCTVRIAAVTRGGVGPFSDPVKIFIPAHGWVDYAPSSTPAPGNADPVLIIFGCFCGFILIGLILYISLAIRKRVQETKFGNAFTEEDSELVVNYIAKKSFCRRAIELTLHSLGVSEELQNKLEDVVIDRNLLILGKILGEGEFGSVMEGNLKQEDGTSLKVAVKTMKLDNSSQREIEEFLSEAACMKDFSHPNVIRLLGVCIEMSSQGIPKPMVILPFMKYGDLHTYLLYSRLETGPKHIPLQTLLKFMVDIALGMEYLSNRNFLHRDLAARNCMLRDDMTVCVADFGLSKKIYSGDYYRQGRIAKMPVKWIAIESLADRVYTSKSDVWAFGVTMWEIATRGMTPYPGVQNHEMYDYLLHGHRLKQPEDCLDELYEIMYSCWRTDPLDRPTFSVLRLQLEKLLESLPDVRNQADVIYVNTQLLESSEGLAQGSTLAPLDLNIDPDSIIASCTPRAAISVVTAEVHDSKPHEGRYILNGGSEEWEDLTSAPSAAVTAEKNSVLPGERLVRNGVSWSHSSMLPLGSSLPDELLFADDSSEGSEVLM
EPHB2, sequence (P29323 whole entry, looked up): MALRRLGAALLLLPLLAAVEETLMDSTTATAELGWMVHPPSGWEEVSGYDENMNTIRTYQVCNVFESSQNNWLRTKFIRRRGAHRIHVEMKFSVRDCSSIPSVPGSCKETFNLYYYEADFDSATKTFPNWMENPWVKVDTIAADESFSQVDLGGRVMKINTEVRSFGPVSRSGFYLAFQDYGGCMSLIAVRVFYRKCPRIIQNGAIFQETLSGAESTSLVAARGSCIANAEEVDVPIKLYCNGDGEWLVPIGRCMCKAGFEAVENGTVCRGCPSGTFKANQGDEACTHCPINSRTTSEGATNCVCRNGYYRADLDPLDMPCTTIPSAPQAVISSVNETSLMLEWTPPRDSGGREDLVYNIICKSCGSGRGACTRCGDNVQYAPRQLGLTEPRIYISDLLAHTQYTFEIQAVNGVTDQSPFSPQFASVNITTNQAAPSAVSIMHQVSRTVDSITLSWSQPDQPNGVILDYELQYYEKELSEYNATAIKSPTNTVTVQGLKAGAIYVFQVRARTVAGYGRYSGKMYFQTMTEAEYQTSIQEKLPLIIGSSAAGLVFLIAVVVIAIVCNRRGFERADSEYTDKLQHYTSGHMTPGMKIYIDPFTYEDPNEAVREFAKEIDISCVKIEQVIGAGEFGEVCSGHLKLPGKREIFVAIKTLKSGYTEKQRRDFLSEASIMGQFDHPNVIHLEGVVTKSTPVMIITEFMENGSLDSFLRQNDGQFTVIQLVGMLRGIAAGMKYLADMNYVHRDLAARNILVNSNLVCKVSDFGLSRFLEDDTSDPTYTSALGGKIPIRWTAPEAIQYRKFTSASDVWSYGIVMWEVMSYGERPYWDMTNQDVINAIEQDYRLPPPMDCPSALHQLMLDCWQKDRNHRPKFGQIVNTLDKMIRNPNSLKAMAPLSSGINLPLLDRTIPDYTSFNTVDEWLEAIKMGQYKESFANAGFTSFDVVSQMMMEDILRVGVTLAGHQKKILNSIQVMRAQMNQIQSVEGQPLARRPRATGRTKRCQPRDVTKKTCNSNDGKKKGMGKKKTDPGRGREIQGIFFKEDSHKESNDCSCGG
Hck, sequence (P08631 whole entry, looked up): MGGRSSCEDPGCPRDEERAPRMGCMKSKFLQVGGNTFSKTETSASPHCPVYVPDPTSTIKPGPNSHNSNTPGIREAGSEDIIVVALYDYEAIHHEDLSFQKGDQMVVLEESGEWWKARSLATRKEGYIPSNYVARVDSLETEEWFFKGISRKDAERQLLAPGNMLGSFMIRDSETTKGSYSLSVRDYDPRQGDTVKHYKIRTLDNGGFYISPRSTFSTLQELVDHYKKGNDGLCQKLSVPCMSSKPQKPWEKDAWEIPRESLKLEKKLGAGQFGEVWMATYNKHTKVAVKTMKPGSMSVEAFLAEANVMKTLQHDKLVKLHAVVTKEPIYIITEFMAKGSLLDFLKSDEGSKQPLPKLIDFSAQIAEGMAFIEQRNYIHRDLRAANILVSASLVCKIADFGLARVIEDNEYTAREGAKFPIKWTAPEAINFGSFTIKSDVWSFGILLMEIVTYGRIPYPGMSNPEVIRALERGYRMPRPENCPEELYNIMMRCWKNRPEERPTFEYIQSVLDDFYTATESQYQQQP
Fes, sequence (P07332 whole entry, looked up): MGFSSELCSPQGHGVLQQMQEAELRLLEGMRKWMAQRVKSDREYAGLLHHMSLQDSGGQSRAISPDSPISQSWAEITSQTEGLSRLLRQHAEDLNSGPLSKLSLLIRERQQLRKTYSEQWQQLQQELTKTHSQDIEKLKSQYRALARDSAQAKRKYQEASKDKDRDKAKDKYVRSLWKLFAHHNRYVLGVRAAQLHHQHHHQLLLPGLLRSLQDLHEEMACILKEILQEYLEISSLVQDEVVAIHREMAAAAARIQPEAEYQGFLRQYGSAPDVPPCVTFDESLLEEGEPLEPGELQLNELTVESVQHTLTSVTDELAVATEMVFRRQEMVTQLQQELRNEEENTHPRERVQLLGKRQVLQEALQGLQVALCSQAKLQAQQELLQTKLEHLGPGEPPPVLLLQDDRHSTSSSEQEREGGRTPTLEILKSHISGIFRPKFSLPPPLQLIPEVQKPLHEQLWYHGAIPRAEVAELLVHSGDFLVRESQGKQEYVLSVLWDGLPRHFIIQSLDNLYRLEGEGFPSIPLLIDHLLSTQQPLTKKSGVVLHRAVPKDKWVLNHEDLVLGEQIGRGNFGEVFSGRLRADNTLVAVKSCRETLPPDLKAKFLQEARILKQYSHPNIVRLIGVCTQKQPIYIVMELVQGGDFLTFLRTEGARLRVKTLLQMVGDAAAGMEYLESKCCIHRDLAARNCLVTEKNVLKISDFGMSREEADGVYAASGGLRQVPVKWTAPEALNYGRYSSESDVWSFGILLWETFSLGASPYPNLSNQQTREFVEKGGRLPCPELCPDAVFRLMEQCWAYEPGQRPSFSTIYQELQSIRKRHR

| Sequence | SH2 binding enrichment [14] | SH2 binding enrichment [15] | SH2 binding enrichment [16] | phosphorylation enrichment [1] | phosphorylation enrichment [2] | phosphorylation enrichment [3] | phosphorylation enrichment [4] | phosphorylation enrichment [5] | phosphorylation enrichment [6] | phosphorylation enrichment [7] | phosphorylation enrichment [8] | phosphorylation enrichment [9] | phosphorylation enrichment [10] | phosphorylation enrichment [11] | phosphorylation enrichment [12] | phosphorylation enrichment [13] |
| --- | --- | --- | --- | --- | --- | --- | --- | --- | --- | --- | --- | --- | --- | --- | --- | --- |
| RDHFGYRQSVT [CD55_Y245_YF] | 0.82 | 0.629 | 0.644 | 0.474 | 0.489 | 0.427 | 0.603 | 0.33 | 0.702 | 0.722 | 0.435 | 0.791 | 0.626 | 0.471 | 0.572 | 0.538 |
| REAAAYLHGRL [AGXT_Y297] | 1.03 | 0.557 | 0.956 | 0.584 | 0.479 | 0.502 | 0.322 | 0.571 | 1.03 | 0.891 | 0.543 | 0.595 | 0.655 | 0.671 | 1 | 1.04 |
| REENGYNTFAS [FGF10_Y161_I156R_YF] | 0.637 | 1.14 | 0.728 | 0.69 | 0.4 | 0.558 | 0.617 | 0.709 | 1 | 0.973 | 0.84 | 0.862 | 0.827 | 0.728 | 0.91 | 0.606 |
| REGAKYVSHGT [ASS1_Y113_A118T] | 0.706 | 0.566 | 0.808 | 0.663 | 0.37 | 0.375 | 0.513 | 0.587 | 0.969 | 0.73 | 0.363 | 0.482 | 0.411 | 0.493 | 0.898 | 0.517 |
| RELGKYGLQAY [ALDH2_Y497_E496K] | 0.564 | 0.455 | 1.15 | 0.457 | 0.455 | 0.475 | 0.403 | 0.402 | 0.72 | 0.683 | 0.464 | 0.47 | 0.356 | 0.426 | 0.543 | 0.581 |
| RESFKYFPSSL [CXXC1_Y218_YF] | 0.565 | 0.367 | 0.955 | 0.421 | 0.4 | 0.295 | 0.424 | 0.421 | 0.567 | 0.748 | 0.435 | 0.547 | 0.852 | 0.543 | 0.612 | 0.454 |
| RESFKYLPSSL [CXXC1_Y218_F219L_YF] | 0.455 | 0.353 | 0.919 | 0.286 | 0.381 | 0.347 | 0.512 | 0.395 | 0.862 | 0.561 | 0.469 | 0.431 | 0.429 | 0.329 | 0.837 | 0.567 |
| RGEKQYLAAPL [ALOX12_Y295] | 0.431 | 0.409 | 0.709 | 0.377 | 0.545 | 0.365 | 0.402 | 0.461 | 0.416 | 0.777 | 0.436 | 0.341 | 0.505 | 0.754 | 0.523 | 0.504 |
| RGERPYGGGGG [FUS_Y526_R522G] | 0.673 | 0.661 | 1.24 | 0.48 | 0.444 | 0.337 | 0.185 | 0.418 | 0.643 | 0.487 | 0.474 | 0.377 | 0.415 | 0.419 | 0.65 | 0.397 |
| RIVEIYSRRLR [GCH1_Y175_Q180R] | 0.353 | 0.404 | 0.761 | 0.773 | 0.736 | 1.15 | 0.728 | 0.654 | 0.623 | 0.691 | 0.922 | 0.549 | 0.81 | 0.292 | 0.619 | 0.692 |
| RKTAKYLLKGE [CDH5_Y82_N79T] | 0.709 | 0.461 | 0.861 | 0.832 | 0.672 | 0.878 | 0.915 | 0.54 | 0.644 | 0.71 | 0.598 | 0.704 | 0.535 | 1.04 | 0.628 | 1.1 |
| RLASVYTKRCS [CPT2_Y508_P504L] | 0.864 | 0.611 | 0.868 | 0.316 | 0.578 | 0.414 | 0.706 | 0.501 | 0.889 | 0.917 | 0.528 | 0.695 | 0.557 | 0.4 | 0.739 | 0.643 |
| RLQEDYDHSFF [ESD_Y258_G257D_YF] | 0.914 | 0.339 | 0.901 | 0.649 | 0.869 | 0.919 | 1.21 | 0.912 | 1.55 | 1.74 | 0.792 | 1.2 | 1.07 | 0.842 | 1.65 | 1.19 |

Continued, in another order:

| SH2 binding enrichment [14] | SH2 binding enrichment [15] | SH2 binding enrichment [16] | Sequence | phosphorylation enrichment [1] | phosphorylation enrichment [2] | phosphorylation enrichment [3] | phosphorylation enrichment [4] | phosphorylation enrichment [5] | phosphorylation enrichment [6] | phosphorylation enrichment [7] | phosphorylation enrichment [8] | phosphorylation enrichment [9] | phosphorylation enrichment [10] | phosphorylation enrichment [11] | phosphorylation enrichment [12] | phosphorylation enrichment [13] |
| --- | --- | --- | --- | --- | --- | --- | --- | --- | --- | --- | --- | --- | --- | --- | --- | --- |
| 0.51 | 0.407 | 0.668 | RCYVYYYSYLL [PTEN_Y177_R173C] | 1.01 | 1.08 | 0.86 | 0.82 | 0.936 | 2 | 1.42 | 0.787 | 1.64 | 1.36 | 1.35 | 2.13 | 1.71 |
| 0.573 | 0.59 | 1.8 | RDLEQYVNNVN [PCDH19_Y1097] | 0.612 | 0.377 | 0.356 | 0.64 | 0.625 | 1.01 | 1.06 | 0.405 | 0.633 | 0.541 | 0.476 | 1.09 | 0.968 |
| 0.715 | 0.567 | 1.01 | RDMNAYISPSP [MMAA_Y207_R209S] | 0.451 | 0.323 | 0.66 | 0.553 | 0.477 | 1.03 | 0.505 | 0.365 | 0.508 | 0.416 | 0.432 | 0.879 | 0.671 |
| 0.835 | 0.794 | 3.06 | RFLERYIFNPE [HLA-DPB1_Y57_R61P_YF] | 0.521 | 0.51 | 0.627 | 0.892 | 0.666 | 1.25 | 1.27 | 0.557 | 0.624 | 0.804 | 0.46 | 1.39 | 1 |
| 1.2 | 0.499 | 0.733 | RFVSRYIFNRE [HLA-DQB1_Y62_T60S_YF] | 0.994 | 0.79 | 0.976 | 1.13 | 0.744 | 1.46 | 1.86 | 1.05 | 0.934 | 0.916 | 0.852 | 2.14 | 0.867 |
| 0.981 | 0.596 | 0.91 | RGVVMYTSKDR [ZG16B_Y136_M133V] | 0.552 | 0.677 | 0.41 | 0.601 | 0.724 | 0.865 | 0.694 | 0.665 | 0.568 | 0.622 | 0.433 | 1.02 | 1.4 |
| 0.607 | 0.44 | 0.679 | RGYRQYAYDGK [HLA-A_Y140_D140Y] | 0.423 | 0.294 | 0.317 | 0.674 | 0.243 | 0.474 | 0.478 | 0.252 | 0.39 | 0.434 | 0.426 | 0.402 | 0.532 |
| 1.11 | 0.932 | 1.09 | RHPEVYHHLGI [NVL_Y290_V295I] | 0.71 | 1.53 | 0.641 | 0.837 | 0.599 | 0.835 | 0.694 | 0.908 | 0.999 | 0.621 | 1.14 | 0.834 | 0.731 |
| 0.764 | 1.02 | 1.16 | RKPDIYGRLAS [MCM4_Y459_E460G] | 0.753 | 5.06 | 0.747 | 0.513 | 0.545 | 0.807 | 0.628 | 4.7 | 1.05 | 2.24 | 0.757 | 0.535 | 0.67 |
| 1.84 | 1.54 | 2.12 | RLLVVYPWNQR [HBB_Y36_T39N] | 0.636 | 0.431 | 0.595 | 0.391 | 0.752 | 1.4 | 1.1 | 0.603 | 0.62 | 0.351 | 0.557 | 1.04 | 0.735 |
| 0.622 | 0.584 | 1.07 | RMETEYGPSVT [MXRA5_Y2717] | 0.54 | 0.752 | 0.408 | 0.779 | 0.929 | 1.01 | 0.937 | 0.823 | 0.718 | 0.787 | 0.91 | 0.985 | 0.92 |
| 0.747 | 0.91 | 0.445 | RMQLPYDSTWE [PDGFRB_Y589_P584R] | 0.447 | 0.764 | 0.434 | 0.76 | 0.704 | 1.33 | 1.23 | 0.851 | 0.963 | 0.996 | 0.779 | 1.17 | 0.913 |
| 0.694 | 0.557 | 0.806 | RNIQQHNSFVS [PRKAR1A_Y373_Y373H] | 0.329 | 0.378 | 0.379 | 0.604 | 0.343 | 0.451 | 0.601 | 0.443 | 0.448 | 0.367 | 0.42 | 0.461 | 0.438 |
| 1.76 | 2.99 | 2.13 | RPGSGYTNIMQ [PKLR_Y564_R569Q] | 0.524 | 0.548 | 0.466 | 0.61 | 0.484 | 0.834 | 0.775 | 0.469 | 0.517 | 0.597 | 0.763 | 0.463 | 0.549 |
| 0.644 | 0.664 | 0.739 | RQNNSYTCYTA [SLC20A2_Y386_R382Q] | 0.476 | 0.694 | 0.528 | 0.597 | 0.76 | 0.897 | 1.11 | 0.58 | 0.659 | 0.915 | 0.557 | 0.787 | 0.582 |
| 1.05 | 0.853 | 1.34 | RQQEVYLLFKQ [RARRES1_Y159_D158V_YF] | 0.478 | 0.66 | 0.576 | 0.915 | 0.589 | 1.48 | 1.57 | 0.892 | 1.19 | 0.788 | 0.789 | 1.37 | 1.64 |
